Measurements reported in patent US9260500B2, “Peptide and use thereof” (Takeda Pharmaceutical Company Limited, priority 2009, dated 2016).
Starred links: 1 amine or outer side, 2 acyl side, 3 side chain; linkers in the order of their positions; H or OH if unused. Non-standard residues stand in square brackets, D forms with d. Primed or numbered codes have the meaning given here. *: point of attachment. Asn(Me)″ = Nω-methylasparagine, CNC(=O)C[C@H](N[*:1])C(=O)[*:2]; Ser(Me)″ = O-methylserine, COC[C@H](N[*:1])C(=O)[*:2]; Phe(4-NH2) = Nc1ccc(C[C@H](N)C(=O)O)cc1; 1Nal = N[C@@H](Cc1cccc2ccccc12)C(=O)O; Cyclohexanecarbonyl = O=C(C1CCCCC1)*; Arg(Me) = CNC(=N)NCCC[C@H](N)C(=O)O; Ala(cPr) = N[C@@H](CC1CC1)C(=O)O; 4Pal = N[C@@H](Cc1ccncc1)C(=O)O; Cha = N[C@@H](CC1CCCCC1)C(=O)O; Isobutyryl = CC(C)C(=O)*; Nle = CCCC[C@H](N)C(=O)O; Nva = CCC[C@H](N)C(=O)O; Abu = CC[C@H](N)C(=O)O; Dap = NC[C@H](N)C(=O)O; Aib = CC(C)(N)C(=O)O; Bz = O=C(c1ccccc1)*

Columns and labels:
human Y2 receptor [1] = biological target: T1, human Y2 receptor (Homo sapiens, UniProt P49146); assay: Human Y2 Receptor G Protein Binding Assay (GBA), [35S]GTPγS; assay type: biochemical; settings: EC50 of test compound/EC50 of PYY(3-36) (PYY3-36 taken as 1), hY2R/CHO membrane fraction
T1 construct: expressed in transfected cells; membrane fraction
T1 sequence (P49146 1-381): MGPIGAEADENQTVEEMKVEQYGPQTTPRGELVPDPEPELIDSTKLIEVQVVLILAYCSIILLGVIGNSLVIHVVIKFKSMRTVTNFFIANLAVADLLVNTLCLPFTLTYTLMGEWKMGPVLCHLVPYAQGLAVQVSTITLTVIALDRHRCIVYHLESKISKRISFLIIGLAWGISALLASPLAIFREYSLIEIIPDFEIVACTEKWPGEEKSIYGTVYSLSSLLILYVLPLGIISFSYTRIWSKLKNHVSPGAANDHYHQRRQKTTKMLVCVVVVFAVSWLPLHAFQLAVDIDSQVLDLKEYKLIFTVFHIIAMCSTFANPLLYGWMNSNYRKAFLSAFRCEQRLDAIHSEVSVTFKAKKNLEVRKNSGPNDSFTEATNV
Method in brief: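 Agonism measured as [35S]GTPγS binding, read by GF/C filtration and scintillation counting after 120 min at room temperature, using human Y2 membranes at 1 μg protein/mL in pH 7.4 Tris/MgCl2/NaCl/GDP buffer. Compound serially diluted 100 μM–1 nM; EC50 normalized to PYY(3-36) (ratio = compound/PYY).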

human Y2 receptor [2] = biological target: T1, human Y2 receptor; assay: Receptor Binding Assay (RBA) for Human Y2, [125I]-PYY displacement on hY2R/CHO membrane fraction; settings: IC50 of test compound/IC50 of PYY(3-36) (PYY(3-36) taken as 1)
Method in brief: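 hY2R stably expressed in CHO/dhfr− cells; membrane fraction prepared from cells disrupted in 10 mM NaHCO3, 5 mM EDTA buffer with protease inhibitors. Binding read as displacement of [125I]-PYY.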

Substance | GBA EC50 Ratio (human Y2 receptor [1]) | RBA IC50 Ratio (human Y2 receptor [2])
Benzoyl-[Cha27,36, Ile28,31, Phe(4NH2)30]-PYY(25-36) (Bz-RH[Cha]IN[Phe(4-NH2)]ITRQR[Cha]-NH2; SMILES CC[C@H](C)[C@H](NC(=O)[C@H](CC1CCCCC1)NC(=O)[C@H](Cc1c[nH]cn1)NC(=O)[C@H](CCCNC(=N)N)NC(=O)c1ccccc1)C(=O)N[C@@H](CC(N)=O)C(=O)N[C@@H](Cc1ccc(N)cc1)C(=O)N[C@H](C(=O)N[C@H](C(=O)N[C@@H](CCCNC(=N)N)C(=O)N[C@@H](CCC(N)=O)C(=O)N[C@@H](CCCNC(=N)N)C(=O)N[C@@H](CC1CCCCC1)C(N)=O)[C@@H](C)O)[C@@H](C)CC) [compound No. 73] | 6.6 | 12
Benzoyl-[Cha27,36, Ile28, Arg(Me)31]-PYY(25-36) (Bz-RH[Cha]INL[Arg(Me)]TRQR[Cha]-NH2) [compound No. 70] | 15 | 18
Benzoyl-[Cha27,36, Ile28, Dap31]-PYY(25-36) (Bz-RH[Cha]INL[Dap]TRQR[Cha]-NH2; SMILES CC[C@H](C)[C@H](NC(=O)[C@H](CC1CCCCC1)NC(=O)[C@H](Cc1c[nH]cn1)NC(=O)[C@H](CCCNC(=N)N)NC(=O)c1ccccc1)C(=O)N[C@@H](CC(N)=O)C(=O)N[C@@H](CC(C)C)C(=O)N[C@@H](CN)C(=O)N[C@H](C(=O)N[C@@H](CCCNC(=N)N)C(=O)N[C@@H](CCC(N)=O)C(=O)N[C@@H](CCCNC(=N)N)C(=O)N[C@@H](CC1CCCCC1)C(N)=O)[C@@H](C)O) [compound No. 69] | 28 | 37
Benzoyl-[Cha27,36, Ile28, Phe(4NH2)31]-PYY(25-36) (Bz-RH[Cha]INL[Phe(4-NH2)]TRQR[Cha]-NH2; SMILES CC[C@H](C)[C@H](NC(=O)[C@H](CC1CCCCC1)NC(=O)[C@H](Cc1c[nH]cn1)NC(=O)[C@H](CCCNC(=N)N)NC(=O)c1ccccc1)C(=O)N[C@@H](CC(N)=O)C(=O)N[C@@H](CC(C)C)C(=O)N[C@@H](Cc1ccc(N)cc1)C(=O)N[C@H](C(=O)N[C@@H](CCCNC(=N)N)C(=O)N[C@@H](CCC(N)=O)C(=O)N[C@@H](CCCNC(=N)N)C(=O)N[C@@H](CC1CCCCC1)C(N)=O)[C@@H](C)O) [compound No. 72] | 5.4 | 5.0
Benzoyl-[Cha27,36, Ile28, Pya(4)31]-PYY(25-36) (Bz-RH[Cha]INL[4Pal]TRQR[Cha]-NH2; SMILES CC[C@H](C)[C@H](NC(=O)[C@H](CC1CCCCC1)NC(=O)[C@H](Cc1c[nH]cn1)NC(=O)[C@H](CCCNC(=N)N)NC(=O)c1ccccc1)C(=O)N[C@@H](CC(N)=O)C(=O)N[C@@H](CC(C)C)C(=O)N[C@@H](Cc1ccncc1)C(=O)N[C@H](C(=O)N[C@@H](CCCNC(=N)N)C(=O)N[C@@H](CCC(N)=O)C(=O)N[C@@H](CCCNC(=N)N)C(=O)N[C@@H](CC1CCCCC1)C(N)=O)[C@@H](C)O) [compound No. 71] | 8.5 | 7.6
Benzoyl-[Cha27,36, Nal(1)28, Aib31]-PYY(25-36) (Bz-RH[Cha][1Nal]NL[Aib]TRQR[Cha]-NH2; SMILES CC(C)C[C@H](NC(=O)[C@H](CC(N)=O)NC(=O)[C@H](Cc1cccc2ccccc12)NC(=O)[C@H](CC1CCCCC1)NC(=O)[C@H](Cc1c[nH]cn1)NC(=O)[C@H](CCCNC(=N)N)NC(=O)c1ccccc1)C(=O)NC(C)(C)C(=O)N[C@H](C(=O)N[C@@H](CCCNC(=N)N)C(=O)N[C@@H](CCC(N)=O)C(=O)N[C@@H](CCCNC(=N)N)C(=O)N[C@@H](CC1CCCCC1)C(N)=O)[C@@H](C)O) [compound No. 63] | 25 | 34
Benzoyl-[His27, Cha28,36, Aib31]-PYY(25-36) (Bz-RHH[Cha]NL[Aib]TRQR[Cha]-NH2; SMILES CC(C)C[C@H](NC(=O)[C@H](CC(N)=O)NC(=O)[C@H](CC1CCCCC1)NC(=O)[C@H](Cc1c[nH]cn1)NC(=O)[C@H](Cc1c[nH]cn1)NC(=O)[C@H](CCCNC(=N)N)NC(=O)c1ccccc1)C(=O)NC(C)(C)C(=O)N[C@H](C(=O)N[C@@H](CCCNC(=N)N)C(=O)N[C@@H](CCC(N)=O)C(=O)N[C@@H](CCCNC(=N)N)C(=O)N[C@@H](CC1CCCCC1)C(N)=O)[C@@H](C)O) [compound No. 104] | 4.3 | 5.6
Benzoyl-[Nva27, Cha28,36, Aib31]-PYY(25-36) (Bz-RH[Nva][Cha]NL[Aib]TRQR[Cha]-NH2; SMILES CCC[C@H](NC(=O)[C@H](Cc1c[nH]cn1)NC(=O)[C@H](CCCNC(=N)N)NC(=O)c1ccccc1)C(=O)N[C@@H](CC1CCCCC1)C(=O)N[C@@H](CC(N)=O)C(=O)N[C@@H](CC(C)C)C(=O)NC(C)(C)C(=O)N[C@H](C(=O)N[C@@H](CCCNC(=N)N)C(=O)N[C@@H](CCC(N)=O)C(=O)N[C@@H](CCCNC(=N)N)C(=O)N[C@@H](CC1CCCCC1)C(N)=O)[C@@H](C)O) [compound No. 103] | 8.6 | 13
Benzoyl-[Ser26, Cha27,28,36, Aib31]-PYY(25-36) (Bz-RS[Cha][Cha]NL[Aib]TRQR[Cha]-NH2; SMILES CC(C)C[C@H](NC(=O)[C@H](CC(N)=O)NC(=O)[C@H](CC1CCCCC1)NC(=O)[C@H](CC1CCCCC1)NC(=O)[C@H](CO)NC(=O)[C@H](CCCNC(=N)N)NC(=O)c1ccccc1)C(=O)NC(C)(C)C(=O)N[C@H](C(=O)N[C@@H](CCCNC(=N)N)C(=O)N[C@@H](CCC(N)=O)C(=O)N[C@@H](CCCNC(=N)N)C(=O)N[C@@H](CC1CCCCC1)C(N)=O)[C@@H](C)O) [compound No. 97] | 6.0 | 13
Benzoyl-[Ser(Me)26, Cha27,28,36, Aib31]-PYY(25-36) (Bz-R[Ser(Me)″][Cha][Cha]NL[Aib]TRQR[Cha]-NH2; SMILES COC[C@H](NC(=O)[C@H](CCCNC(=N)N)NC(=O)c1ccccc1)C(=O)N[C@@H](CC1CCCCC1)C(=O)N[C@@H](CC1CCCCC1)C(=O)N[C@@H](CC(N)=O)C(=O)N[C@@H](CC(C)C)C(=O)NC(C)(C)C(=O)N[C@H](C(=O)N[C@@H](CCCNC(=N)N)C(=O)N[C@@H](CCC(N)=O)C(=O)N[C@@H](CCCNC(=N)N)C(=O)N[C@@H](CC1CCCCC1)C(N)=O)[C@@H](C)O) [compound No. 98] | 8.7 | 18
Cyclohexanecarbonyl-[Cha27,36, Ala(cPr)28, Aib31]-PYY(25-36) (Cyclohexanecarbonyl-RH[Cha][Ala(cPr)]NL[Aib]TRQR[Cha]-NH2; SMILES CC(C)C[C@H](NC(=O)[C@H](CC(N)=O)NC(=O)[C@H](CC1CC1)NC(=O)[C@H](CC1CCCCC1)NC(=O)[C@H](Cc1c[nH]cn1)NC(=O)[C@H](CCCNC(=N)N)NC(=O)C1CCCCC1)C(=O)NC(C)(C)C(=O)N[C@H](C(=O)N[C@@H](CCCNC(=N)N)C(=O)N[C@@H](CCC(N)=O)C(=O)N[C@@H](CCCNC(=N)N)C(=O)N[C@@H](CC1CCCCC1)C(N)=O)[C@@H](C)O) [compound No. 78] | 23 | 15
Cyclohexanecarbonyl-[Cha27,36, Ile28,31, Asn(Me)29]-PYY(25-36) (Cyclohexanecarbonyl-RH[Cha]I[Asn(Me)″]LITRQR[Cha]-NH2; SMILES CC[C@H](C)[C@H](NC(=O)[C@H](CC1CCCCC1)NC(=O)[C@H](Cc1c[nH]cn1)NC(=O)[C@H](CCCNC(=N)N)NC(=O)C1CCCCC1)C(=O)N[C@@H](CC(=O)NC)C(=O)N[C@@H](CC(C)C)C(=O)N[C@H](C(=O)N[C@H](C(=O)N[C@@H](CCCNC(=N)N)C(=O)N[C@@H](CCC(N)=O)C(=O)N[C@@H](CCCNC(=N)N)C(=O)N[C@@H](CC1CCCCC1)C(N)=O)[C@@H](C)O)[C@@H](C)CC) [compound No. 75] | 37 | 76
Cyclohexanecarbonyl-[Nle26, Cha27,28,36, Aib31]-PYY(25-36) (Cyclohexanecarbonyl-R[Nle][Cha][Cha]NL[Aib]TRQR[Cha]-NH2; SMILES CCCC[C@H](NC(=O)[C@H](CCCNC(=N)N)NC(=O)C1CCCCC1)C(=O)N[C@@H](CC1CCCCC1)C(=O)N[C@@H](CC1CCCCC1)C(=O)N[C@@H](CC(N)=O)C(=O)N[C@@H](CC(C)C)C(=O)NC(C)(C)C(=O)N[C@H](C(=O)N[C@@H](CCCNC(=N)N)C(=O)N[C@@H](CCC(N)=O)C(=O)N[C@@H](CCCNC(=N)N)C(=O)N[C@@H](CC1CCCCC1)C(N)=O)[C@@H](C)O) [compound No. 77] | 33 | 50
Isobutanoyl-[Abu26,27, Cha28,36, Aib31]-PYY(25-36) (Isobutyryl-R[Abu][Abu][Cha]NL[Aib]TRQR[Cha]-NH2; SMILES CC[C@H](NC(=O)[C@H](CCCNC(=N)N)NC(=O)C(C)C)C(=O)N[C@@H](CC)C(=O)N[C@@H](CC1CCCCC1)C(=O)N[C@@H](CC(N)=O)C(=O)N[C@@H](CC(C)C)C(=O)NC(C)(C)C(=O)N[C@H](C(=O)N[C@@H](CCCNC(=N)N)C(=O)N[C@@H](CCC(N)=O)C(=O)N[C@@H](CCCNC(=N)N)C(=O)N[C@@H](CC1CCCCC1)C(N)=O)[C@@H](C)O) [compound No. 94] | 37 | 31
